Assay results from publication PMC4505944, “The THERMOSENSITIVE MALE STERILE 1 Interacts with the BiPs via DnaJ Domain and Stimulates Their ATPase Enzyme Activities in Arabidopsis” (PLoS ONE, 2015).

How the values were obtained:
[1] = target: T1, BiP3 without signal peptide, His-tagged (Arabidopsis thaliana, UniProt Q8H1B3 36-675); assay: pull-down; 30 μg GST fusion or GST on Glutathione Sepharose 4B beads; 30 μg purified BiP1 or BiP3 with 1 mM ATP in 1 mL binding buffer (20 mM Hepes pH 6.8, 100 mM KCl, 5 mM MgCl2, 0.1% NP-40, 2% glycerol, 1 mM DTT, 1 mM EDTA), 4°C, 2 h; anti-His blot; conditions: both partners purified
T1 construct: full-length CDS without the signal peptide; Cloned into pET30a(+) (EcoRI/XhoI); further vector-derived residues between the tag and BiP3 are likely; also called BiP3-His; source: E. coli BL21, purified, dialyzed; not shown: His6, N-terminal, kept
T1 sequence (Q8H1B3 36-675): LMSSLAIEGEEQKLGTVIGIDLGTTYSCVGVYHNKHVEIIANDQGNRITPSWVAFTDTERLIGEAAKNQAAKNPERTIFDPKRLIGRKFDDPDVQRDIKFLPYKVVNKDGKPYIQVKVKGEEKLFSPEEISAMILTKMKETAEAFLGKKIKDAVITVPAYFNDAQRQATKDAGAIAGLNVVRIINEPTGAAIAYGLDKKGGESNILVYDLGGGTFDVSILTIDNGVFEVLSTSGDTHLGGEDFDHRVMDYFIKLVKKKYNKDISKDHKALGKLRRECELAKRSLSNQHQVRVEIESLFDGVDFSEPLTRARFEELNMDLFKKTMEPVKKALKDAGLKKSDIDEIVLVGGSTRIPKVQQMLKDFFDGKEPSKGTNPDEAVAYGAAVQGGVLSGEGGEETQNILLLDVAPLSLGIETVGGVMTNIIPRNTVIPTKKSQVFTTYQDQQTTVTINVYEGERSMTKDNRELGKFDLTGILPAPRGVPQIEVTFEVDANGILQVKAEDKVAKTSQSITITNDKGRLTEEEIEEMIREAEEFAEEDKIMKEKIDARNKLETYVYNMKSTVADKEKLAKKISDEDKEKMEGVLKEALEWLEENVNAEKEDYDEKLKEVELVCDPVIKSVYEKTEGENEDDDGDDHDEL

[2] = target: T2, BiP1 without signal peptide, His-tagged (Arabidopsis thaliana, UniProt Q9LKR3 28-669); assay: as above; conditions: both partners purified
T2 construct: full-length CDS without the signal peptide; Cloned into pET30a(+) (EcoRI/XhoI); further vector-derived residues between the tag and BiP1 are likely; also called BiP1-His; source: E. coli BL21, purified, dialyzed; not shown: His6, N-terminal, kept
T2 sequence (Q9LKR3 28-669): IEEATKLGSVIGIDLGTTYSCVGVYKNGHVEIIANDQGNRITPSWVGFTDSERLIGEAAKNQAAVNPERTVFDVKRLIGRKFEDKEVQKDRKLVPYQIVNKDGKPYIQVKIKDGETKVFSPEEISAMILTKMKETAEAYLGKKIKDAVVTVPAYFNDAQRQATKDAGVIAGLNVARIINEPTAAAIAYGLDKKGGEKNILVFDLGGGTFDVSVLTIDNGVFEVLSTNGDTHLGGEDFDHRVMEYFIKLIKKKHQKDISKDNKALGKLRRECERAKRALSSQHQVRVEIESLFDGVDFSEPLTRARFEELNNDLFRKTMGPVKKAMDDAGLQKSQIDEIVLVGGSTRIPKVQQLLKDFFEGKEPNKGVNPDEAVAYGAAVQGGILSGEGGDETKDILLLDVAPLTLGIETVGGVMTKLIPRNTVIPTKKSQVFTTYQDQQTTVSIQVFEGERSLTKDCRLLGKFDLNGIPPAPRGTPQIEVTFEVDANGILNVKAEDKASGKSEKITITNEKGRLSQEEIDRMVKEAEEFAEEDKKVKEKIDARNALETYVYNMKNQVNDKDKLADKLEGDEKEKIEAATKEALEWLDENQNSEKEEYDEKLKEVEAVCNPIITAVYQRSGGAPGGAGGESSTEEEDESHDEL

- binding result [1]: binds
- binding result [2]: binds
B1: recombinant TMS1 DnaJ domain with a GST tag (domain or fragment, Arabidopsis thaliana, UniProt Q9SR96 27-80, looked up)
chain: DPYKVLGVSKDAKQREIQKAFHKQSLKYHPDKNKDKGAQEKFAEINNAYEILSD
notes: DnaJ domain of TMS1 (AtERdj3A), Arabidopsis thaliana, 54 amino acid residues, 27-80 aa in TMS1; Cloned into pGEX4T-1 (EcoRI/XhoI); also called GST-DnaJ; source: E. coli BL21, purified, dialyzed
